Where two headings read alike, the source gives them in different places.
Experiments:
Assay in all cases: rosette formation
[1] = target: C receptor type 1, the C3b receptor (human (endogenous in erythrocytes, monocytes and neutrophils)) (UniProt P17927)
[2] = target: C receptor type 2, the C3d receptor (human (endogenous in Raji)) (UniProt P20023)
[3] = target: C receptor type 1, the C3b receptor (human (endogenous in erythrocytes, monocytes and neutrophils)) (UniProt P17927); remark: listed apart in the source
[4] = target: C receptor type 3, iC3b receptor (human (endogenous in monocytes and neutrophils)) (UniProt P11215)
[5] = target: C receptor type 3, iC3b receptor (human (endogenous in monocytes and neutrophils)) (UniProt P11215); remark: listed apart in the source
[6] = target: C receptor type 1, the C3b receptor (human (endogenous in erythrocytes, monocytes and neutrophils)) (UniProt P17927); remark: listed apart in the source
[7] = target: C receptor type 1, the C3b receptor (human (endogenous in erythrocytes, monocytes and neutrophils)) (UniProt P17927); remark: listed apart in the source

Sequence of C receptor type 1, the C3b receptor (human (endogenous in erythrocytes, monocytes and neutrophils)) (P17927 42-2039): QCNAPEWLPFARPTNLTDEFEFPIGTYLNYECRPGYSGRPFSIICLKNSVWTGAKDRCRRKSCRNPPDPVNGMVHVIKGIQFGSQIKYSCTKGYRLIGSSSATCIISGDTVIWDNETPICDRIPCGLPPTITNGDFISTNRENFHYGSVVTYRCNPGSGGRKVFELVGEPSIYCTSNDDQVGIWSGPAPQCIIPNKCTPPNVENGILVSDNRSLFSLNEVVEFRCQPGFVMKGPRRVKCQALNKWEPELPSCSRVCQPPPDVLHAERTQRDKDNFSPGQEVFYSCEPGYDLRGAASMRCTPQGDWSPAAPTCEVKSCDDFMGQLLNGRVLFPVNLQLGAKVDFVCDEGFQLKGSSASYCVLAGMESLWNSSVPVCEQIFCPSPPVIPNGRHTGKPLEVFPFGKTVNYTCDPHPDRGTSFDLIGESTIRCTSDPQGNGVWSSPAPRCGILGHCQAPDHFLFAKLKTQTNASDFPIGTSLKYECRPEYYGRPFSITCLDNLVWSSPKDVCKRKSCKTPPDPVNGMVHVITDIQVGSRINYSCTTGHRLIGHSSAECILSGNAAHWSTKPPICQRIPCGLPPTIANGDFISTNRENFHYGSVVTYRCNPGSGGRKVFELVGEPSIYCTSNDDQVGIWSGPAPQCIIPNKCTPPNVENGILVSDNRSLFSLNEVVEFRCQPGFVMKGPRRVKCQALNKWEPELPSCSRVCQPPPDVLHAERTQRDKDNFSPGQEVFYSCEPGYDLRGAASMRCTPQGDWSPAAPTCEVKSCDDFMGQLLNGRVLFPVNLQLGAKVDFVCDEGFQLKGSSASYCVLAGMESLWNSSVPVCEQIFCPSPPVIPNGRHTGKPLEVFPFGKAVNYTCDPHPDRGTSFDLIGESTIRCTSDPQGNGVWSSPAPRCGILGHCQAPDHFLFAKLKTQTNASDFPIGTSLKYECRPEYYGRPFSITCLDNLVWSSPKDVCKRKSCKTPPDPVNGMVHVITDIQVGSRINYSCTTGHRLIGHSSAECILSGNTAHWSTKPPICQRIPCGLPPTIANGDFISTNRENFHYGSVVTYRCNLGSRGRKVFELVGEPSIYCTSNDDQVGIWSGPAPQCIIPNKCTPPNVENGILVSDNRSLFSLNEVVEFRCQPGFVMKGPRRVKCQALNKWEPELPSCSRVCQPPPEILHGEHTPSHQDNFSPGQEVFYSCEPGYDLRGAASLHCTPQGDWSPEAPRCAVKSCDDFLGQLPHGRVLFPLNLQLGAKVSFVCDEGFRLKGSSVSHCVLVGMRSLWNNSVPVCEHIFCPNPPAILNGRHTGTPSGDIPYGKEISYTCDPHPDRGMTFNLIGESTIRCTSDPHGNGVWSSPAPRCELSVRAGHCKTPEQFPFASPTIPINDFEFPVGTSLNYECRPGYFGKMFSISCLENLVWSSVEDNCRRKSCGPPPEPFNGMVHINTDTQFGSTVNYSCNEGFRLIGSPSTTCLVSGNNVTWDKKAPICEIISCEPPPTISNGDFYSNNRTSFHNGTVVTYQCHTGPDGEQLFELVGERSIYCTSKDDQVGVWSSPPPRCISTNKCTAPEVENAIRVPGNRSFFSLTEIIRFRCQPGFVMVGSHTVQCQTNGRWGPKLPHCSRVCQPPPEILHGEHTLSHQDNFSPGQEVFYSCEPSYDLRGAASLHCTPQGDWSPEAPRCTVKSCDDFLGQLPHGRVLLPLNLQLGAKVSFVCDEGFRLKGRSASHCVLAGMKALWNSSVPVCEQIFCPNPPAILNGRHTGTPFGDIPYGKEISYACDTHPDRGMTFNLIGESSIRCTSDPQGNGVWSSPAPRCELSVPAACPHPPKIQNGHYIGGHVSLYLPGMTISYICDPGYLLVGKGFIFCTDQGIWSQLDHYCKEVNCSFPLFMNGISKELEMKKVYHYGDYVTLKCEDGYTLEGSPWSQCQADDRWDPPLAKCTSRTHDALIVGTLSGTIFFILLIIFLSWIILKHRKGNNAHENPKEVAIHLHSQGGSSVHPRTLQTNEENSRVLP
Sequence of C receptor type 2, the C3d receptor (human (endogenous in Raji)) (P20023 21-1033): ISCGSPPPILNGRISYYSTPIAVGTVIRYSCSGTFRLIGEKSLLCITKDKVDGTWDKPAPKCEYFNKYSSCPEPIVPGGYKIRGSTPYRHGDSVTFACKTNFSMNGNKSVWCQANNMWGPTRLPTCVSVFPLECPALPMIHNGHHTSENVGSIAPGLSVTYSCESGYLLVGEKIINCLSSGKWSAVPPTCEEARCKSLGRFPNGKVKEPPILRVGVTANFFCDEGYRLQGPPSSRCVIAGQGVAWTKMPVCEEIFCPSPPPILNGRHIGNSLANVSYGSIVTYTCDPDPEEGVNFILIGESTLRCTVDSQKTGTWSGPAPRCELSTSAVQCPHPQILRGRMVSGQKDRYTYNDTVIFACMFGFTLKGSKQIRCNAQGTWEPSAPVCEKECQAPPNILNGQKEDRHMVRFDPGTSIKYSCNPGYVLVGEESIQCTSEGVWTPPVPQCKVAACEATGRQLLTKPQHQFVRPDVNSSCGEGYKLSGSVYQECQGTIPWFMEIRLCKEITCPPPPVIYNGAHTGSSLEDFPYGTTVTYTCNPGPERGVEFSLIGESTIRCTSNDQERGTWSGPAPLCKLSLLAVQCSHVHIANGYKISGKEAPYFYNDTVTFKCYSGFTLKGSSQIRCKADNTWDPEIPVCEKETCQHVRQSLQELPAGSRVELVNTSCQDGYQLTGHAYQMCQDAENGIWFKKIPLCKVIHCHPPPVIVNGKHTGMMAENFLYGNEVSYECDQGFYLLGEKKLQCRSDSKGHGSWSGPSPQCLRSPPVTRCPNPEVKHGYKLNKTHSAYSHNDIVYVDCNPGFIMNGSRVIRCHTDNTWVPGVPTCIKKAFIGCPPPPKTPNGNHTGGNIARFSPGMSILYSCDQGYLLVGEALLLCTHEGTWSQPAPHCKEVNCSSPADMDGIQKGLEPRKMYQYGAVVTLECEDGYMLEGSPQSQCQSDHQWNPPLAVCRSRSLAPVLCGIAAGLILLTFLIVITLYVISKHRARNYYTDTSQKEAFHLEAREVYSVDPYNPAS
Sequence of C3c (P01024 23-1663): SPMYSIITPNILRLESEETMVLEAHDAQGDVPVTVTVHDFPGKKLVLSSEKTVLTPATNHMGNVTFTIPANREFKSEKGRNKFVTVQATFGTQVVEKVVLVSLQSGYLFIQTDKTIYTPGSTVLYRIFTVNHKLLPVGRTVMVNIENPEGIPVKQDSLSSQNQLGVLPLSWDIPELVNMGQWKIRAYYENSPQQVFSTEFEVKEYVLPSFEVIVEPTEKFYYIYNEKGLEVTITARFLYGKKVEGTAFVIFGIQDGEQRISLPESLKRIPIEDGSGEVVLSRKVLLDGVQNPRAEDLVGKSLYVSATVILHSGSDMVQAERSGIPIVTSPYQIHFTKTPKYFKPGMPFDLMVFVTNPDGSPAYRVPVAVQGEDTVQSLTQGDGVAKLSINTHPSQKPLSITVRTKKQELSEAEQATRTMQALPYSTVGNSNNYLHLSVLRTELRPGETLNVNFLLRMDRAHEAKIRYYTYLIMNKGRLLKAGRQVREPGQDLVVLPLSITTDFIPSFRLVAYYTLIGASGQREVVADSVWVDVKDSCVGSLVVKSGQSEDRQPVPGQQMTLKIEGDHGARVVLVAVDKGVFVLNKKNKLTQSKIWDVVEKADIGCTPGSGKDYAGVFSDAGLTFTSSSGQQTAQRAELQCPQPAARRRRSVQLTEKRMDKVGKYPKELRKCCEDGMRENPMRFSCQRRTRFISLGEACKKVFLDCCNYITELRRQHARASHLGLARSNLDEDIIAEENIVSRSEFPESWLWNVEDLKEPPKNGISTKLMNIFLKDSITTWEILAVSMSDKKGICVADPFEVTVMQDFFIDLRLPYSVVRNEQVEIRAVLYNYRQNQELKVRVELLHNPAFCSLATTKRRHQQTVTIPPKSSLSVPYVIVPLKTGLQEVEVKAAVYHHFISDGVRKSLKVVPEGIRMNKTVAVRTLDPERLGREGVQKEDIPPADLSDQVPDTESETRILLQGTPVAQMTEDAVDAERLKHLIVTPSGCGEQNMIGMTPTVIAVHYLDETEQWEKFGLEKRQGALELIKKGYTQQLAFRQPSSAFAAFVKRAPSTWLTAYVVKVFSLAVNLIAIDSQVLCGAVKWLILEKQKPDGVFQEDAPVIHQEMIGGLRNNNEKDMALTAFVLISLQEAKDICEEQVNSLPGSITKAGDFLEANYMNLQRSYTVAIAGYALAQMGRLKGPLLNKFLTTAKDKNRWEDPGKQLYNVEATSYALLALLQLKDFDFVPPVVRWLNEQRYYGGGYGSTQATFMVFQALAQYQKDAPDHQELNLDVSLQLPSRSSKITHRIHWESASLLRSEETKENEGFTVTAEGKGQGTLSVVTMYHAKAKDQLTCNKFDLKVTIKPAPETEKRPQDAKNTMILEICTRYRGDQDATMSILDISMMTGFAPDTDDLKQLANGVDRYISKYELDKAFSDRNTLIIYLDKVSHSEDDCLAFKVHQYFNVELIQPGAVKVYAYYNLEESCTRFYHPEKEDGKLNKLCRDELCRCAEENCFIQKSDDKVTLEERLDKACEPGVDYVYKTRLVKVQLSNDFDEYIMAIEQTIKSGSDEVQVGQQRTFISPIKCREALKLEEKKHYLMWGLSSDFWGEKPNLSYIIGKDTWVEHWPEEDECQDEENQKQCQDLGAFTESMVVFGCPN

C3c (from UniProt P01024 23-667; P01024 749-954; P01024 1321-1663) (domain or fragment)
% rosette formation (C3c microspheres, erythrocytes, buffer) [1]: 72% | % rosette formation (C3c microspheres, monocytes, buffer) [1]: 80%

C3d,g (from UniProt P01024 1002-1303) (domain or fragment)
% rosette formation (C3d,g microspheres, Raji cells, buffer) [2]: 99% | % rosette formation (Raji cells, 6.9 x 10^4 C3d,g per E, buffer) [2]: 99%

iC3b (inactivated C3b) (from UniProt P01024 23-667; P01024 749-1663; P01024 749-1663) (domain or fragment)
% rosette formation (erythrocytes, 37 x 10^3 iC3b per E) [3]: 15% | % rosette formation (erythrocytes, 65 x 10^3 iC3b per E) [3]: 22% | % rosette formation (monocytes treated with anti-Mac-1, 14 x 10^3 iC3b per E) [3]: 5% | % rosette formation (monocytes treated with anti-Mac-1, 65 x 10^3 iC3b per E) [3]: 75% | % rosette formation (neutrophils treated with anti-Mac-1, 14 x 10^3 iC3b per E) [3]: 4% | % rosette formation (neutrophils treated with anti-Mac-1, 65 x 10^3 iC3b per E) [3]: 95% | % rosette formation (monocytes treated with anti-CR1, 14 x 10^3 iC3b per E) [4]: 74% | % rosette formation (monocytes treated with anti-CR1, 65 x 10^3 iC3b per E) [4]: 85% | % rosette formation (monocytes, 7.9 x 10^3 iC3b per E) [4]: 59% | % rosette formation (neutrophils treated with anti-CR1, 14 x 10^3 iC3b per E) [4]: 79% | % rosette formation (neutrophils treated with anti-CR1, 65 x 10^3 iC3b per E) [4]: 92% | % rosette formation (erythrocytes, 14 x 10^3 iC3b per E) [1]: 21% | % rosette formation (erythrocytes, 37 x 10^3 iC3b per E) [1]: 39% | % rosette formation (erythrocytes, 65 x 10^3 iC3b per E) [1]: 60% | % rosette formation (iC3b microspheres, erythrocytes, buffer) [1]: 75% | % rosette formation (iC3b microspheres, monocytes, buffer) [1]: 96% | % rosette formation (monocytes treated with anti-Mac-1, 14 x 10^3 iC3b per E) [1]: 20% | % rosette formation (monocytes treated with anti-Mac-1, 65 x 10^3 iC3b per E) [1]: 92% | % rosette formation (neutrophils treated with anti-Mac-1, 14 x 10^3 iC3b per E) [1]: 13% | % rosette formation (neutrophils treated with anti-Mac-1, 65 x 10^3 iC3b per E) [1]: 100% | % rosette formation (iC3b microspheres, Raji cells, buffer) [2]: 98% | % rosette formation (anti-CR1-treated monocytes, 1.4 x 10^4 iC3b per E, BDVA) [5]: 84% | % rosette formation (anti-CR1-treated monocytes, 7.9 x 10^3 iC3b per E, BDVA) [5]: 44% | % rosette formation (monocytes treated with anti-CR1, 14 x 10^3 iC3b per E) [5]: 95% | % rosette formation (monocytes treated with anti-CR1, 65 x 10^3 iC3b per E) [5]: 94% | % rosette formation (monocytes, 7.9 x 10^3 iC3b per E) [5]: 86% | % rosette formation (neutrophils treated with anti-CR1, 14 x 10^3 iC3b per E) [5]: 100% | % rosette formation (neutrophils treated with anti-CR1, 65 x 10^3 iC3b per E) [5]: 100% | % rosette formation (erythrocytes, 14 x 10^3 iC3b per E) [6]: 10% | % rosette formation (erythrocytes, 37 x 10^3 iC3b per E) [6]: 22% | % rosette formation (erythrocytes, 65 x 10^3 iC3b per E) [6]: 32% | % rosette formation (monocytes treated with anti-Mac-1, 14 x 10^3 iC3b per E) [6]: 13% | % rosette formation (monocytes treated with anti-Mac-1, 65 x 10^3 iC3b per E) [6]: 81% | % rosette formation (monocytes, 14 x 10^3 iC3b per E) [6]: 18% | % rosette formation (monocytes, 65 x 10^3 iC3b per E) [6]: 85% | % rosette formation (neutrophils treated with anti-Mac-1, 14 x 10^3 iC3b per E) [6]: 9% | % rosette formation (neutrophils treated with anti-Mac-1, 65 x 10^3 iC3b per E) [6]: 86% | % rosette formation (neutrophils, 14 x 10^3 iC3b per E) [6]: 11% | % rosette formation (neutrophils, 37 x 10^3 iC3b per E) [6]: 84% | % rosette formation (neutrophils, 65 x 10^3 iC3b per E) [6]: 88% | % rosette formation (erythrocytes, 37 x 10^3 iC3b per E) [7]: 5% | % rosette formation (erythrocytes, 65 x 10^3 iC3b per E) [7]: 8% | % rosette formation (monocytes treated with anti-Mac-1, 14 x 10^3 iC3b per E) [7]: 6% | % rosette formation (monocytes treated with anti-Mac-1, 65 x 10^3 iC3b per E) [7]: 74% | % rosette formation (monocytes, 14 x 10^3 iC3b per E) [7]: 8% | % rosette formation (monocytes, 65 x 10^3 iC3b per E) [7]: 77% | % rosette formation (neutrophils treated with anti-Mac-1, 14 x 10^3 iC3b per E) [7]: 3% | % rosette formation (neutrophils treated with anti-Mac-1, 65 x 10^3 iC3b per E) [7]: 93% | % rosette formation (neutrophils, 14 x 10^3 iC3b per E) [7]: 2% | % rosette formation (neutrophils, 37 x 10^3 iC3b per E) [7]: 78% | % rosette formation (neutrophils, 65 x 10^3 iC3b per E) [7]: 97%

Source: PMC2187331
